Measurements as given in paper PMC8136791, “In vivo targets of Salmonella FinO include a FinP-like small RNA controlling copy number of a cohabitating plasmid”.

B1: RepX (structured_RNA)
RNA: GGGCAUUGAUUGCCUCCUUUGCAGGCAGUUGGUGGUUAGGCGCUGGCGGGGUCACUACCCCCGCCCUGCGCCGCUCU
B2: FinP (structured_RNA)
RNA: GGGACACAUAGGAACCUCCUCAAAGGAUUCUAUGGACAGUCGAUGCAGGGAGUGACAGCUCCCUGUAUCGGCGAUUUU

Biological target: FinO (Salmonella enterica SL1344 (virulence …, UniProt A0A0H3P176 1-187))
Assay: EMSA; yeast RNA 1 ug/reaction; apparent Kd; 25 mM Tris-HCl pH 7.4, 150 mM NaCl, 1 mM MgCl2, 1 ug yeast RNA/reaction, 4 nM labeled RNA, 37 C, 1 h (EMSA) or 30 min (filter binding)
Details: protein: recombinant, tags: His6-3C (expression plasmid pMiG007-His6-3C-FinO), label: 32P (5' end; 3' pCp alternative for probing)

Row | Binder | Kd (FinP-like stem-loops, short 3' tail) [nM] | Kd (two stem-loops (SLI, SLII) with 3' U tail) [nM]
1 | B1 | ~500 | 
2 | B2 |  | ~500
